# Test results published in US9540428B2, “Extracellular matrix heparin-binding domains” (EPFL-TTO, priority 2012, dated 2017).
# T1: PLGF-1 (Homo sapiens, UniProt P49763)
# T1 sequence (P49763 19-149 isoform P49763-2): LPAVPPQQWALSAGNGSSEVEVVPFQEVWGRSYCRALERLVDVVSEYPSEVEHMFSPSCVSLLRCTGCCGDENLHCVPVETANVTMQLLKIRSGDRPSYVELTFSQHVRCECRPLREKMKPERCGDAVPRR
# T2: BMP-2 (Homo sapiens, UniProt P12643)
# T2 sequence (P12643 283-396): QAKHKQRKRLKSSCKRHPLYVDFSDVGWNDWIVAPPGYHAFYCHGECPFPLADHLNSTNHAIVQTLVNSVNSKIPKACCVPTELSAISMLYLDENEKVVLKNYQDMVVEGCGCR
# T3: FGF-7 (Homo sapiens, UniProt P21781)
# T3 sequence (P21781 32-194): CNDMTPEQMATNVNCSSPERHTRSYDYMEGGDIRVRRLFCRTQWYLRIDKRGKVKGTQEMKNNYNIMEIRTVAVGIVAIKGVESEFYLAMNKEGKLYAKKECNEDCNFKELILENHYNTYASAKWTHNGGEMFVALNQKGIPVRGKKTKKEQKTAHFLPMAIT
# T4: TGF-β2 (Homo sapiens, UniProt P61812)
# T4 sequence (P61812 303-414 limits assumed): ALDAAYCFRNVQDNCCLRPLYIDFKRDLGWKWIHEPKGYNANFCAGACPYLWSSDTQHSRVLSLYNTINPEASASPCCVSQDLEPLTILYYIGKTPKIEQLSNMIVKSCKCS
# T5: NT-3 (Homo sapiens, UniProt P20783)
# T5 sequence (P20783 139-257): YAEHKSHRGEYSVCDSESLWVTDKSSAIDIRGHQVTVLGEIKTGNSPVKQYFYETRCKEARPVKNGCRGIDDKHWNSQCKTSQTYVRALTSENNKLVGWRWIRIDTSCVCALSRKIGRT
# T6: VEGF-A165 (Homo sapiens, UniProt P15692)
# T6 sequence (P15692 1-191 isoform P15692-4): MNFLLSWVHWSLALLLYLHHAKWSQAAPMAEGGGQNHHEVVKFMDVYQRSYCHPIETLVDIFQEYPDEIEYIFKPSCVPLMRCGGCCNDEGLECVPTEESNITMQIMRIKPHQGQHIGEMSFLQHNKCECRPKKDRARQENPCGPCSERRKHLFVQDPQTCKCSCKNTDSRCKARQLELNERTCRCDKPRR
# T7: BDNF (Homo sapiens, UniProt P23560)
# T7 sequence (P23560 129-247): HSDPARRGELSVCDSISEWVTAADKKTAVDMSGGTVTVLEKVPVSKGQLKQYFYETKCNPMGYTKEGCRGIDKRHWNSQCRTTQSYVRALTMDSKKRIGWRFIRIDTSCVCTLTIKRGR
# T8: FGF-10 (Homo sapiens, UniProt O15520)
# T8 sequence (O15520 38-208): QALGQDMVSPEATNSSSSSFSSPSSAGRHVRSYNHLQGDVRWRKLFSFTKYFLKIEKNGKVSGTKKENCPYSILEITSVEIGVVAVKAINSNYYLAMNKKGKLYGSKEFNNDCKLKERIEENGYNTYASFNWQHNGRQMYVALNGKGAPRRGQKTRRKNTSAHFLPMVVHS
# T9: PLGF-2 (Homo sapiens, UniProt P49763)
# T9 sequence (P49763 19-170 isoform P49763-3 limits assumed): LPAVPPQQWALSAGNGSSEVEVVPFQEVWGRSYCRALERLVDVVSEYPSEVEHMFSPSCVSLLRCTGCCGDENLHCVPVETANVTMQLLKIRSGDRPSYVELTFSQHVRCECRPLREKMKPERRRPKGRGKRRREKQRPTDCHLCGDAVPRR
# T10: VEGF-B (Homo sapiens, UniProt P49765)
# T10 sequence (P49765 22-207): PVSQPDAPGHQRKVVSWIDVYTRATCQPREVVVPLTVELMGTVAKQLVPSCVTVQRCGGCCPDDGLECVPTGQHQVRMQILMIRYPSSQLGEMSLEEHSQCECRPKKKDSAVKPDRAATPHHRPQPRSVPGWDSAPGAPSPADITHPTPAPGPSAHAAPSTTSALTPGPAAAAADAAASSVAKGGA
# Key:
# Settings in all cases: 50 nM cytokine coated
# IGF-BP3 = IGF-BP3 (Homo sapiens, UniProt P17936); assay: ELISA binding to coated IGF-BP3
# Chain of IGF-BP3 (P17936 28-291, species assumed): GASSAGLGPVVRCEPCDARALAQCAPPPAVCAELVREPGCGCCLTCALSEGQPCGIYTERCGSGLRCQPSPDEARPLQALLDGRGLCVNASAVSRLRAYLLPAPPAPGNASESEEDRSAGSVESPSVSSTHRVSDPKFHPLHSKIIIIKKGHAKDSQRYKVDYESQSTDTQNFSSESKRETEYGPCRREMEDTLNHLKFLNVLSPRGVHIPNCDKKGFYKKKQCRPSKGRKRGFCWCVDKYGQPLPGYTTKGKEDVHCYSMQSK
# Experimental: (§1) ELISA plates were coated with cytokines or BSA and further incubated with TNC III1-5 to analyze binding of TNC III1-5 to a wide variety of cytokines. […] Results are depicted in FIG. 3. Method: 50 nM of cytokine was coated for (1 hr, 37° C.). After blocking with 2% BSA (1 hr, RT). 100 nM TNC III1-5 was applied in PBST (0.05% tween, 0.1% bovine serum albumin (BSA)) (1 hr, RT). TNC III1-5 was detected with horseradish peroxidase (HRP)-anti-HIS in PBST (1 hr, RT) and developed with 3,3′,5,5′-tetramethylbenzidine (TMB), a soluble colorimetric HRP […]. Addition of sulfuric acid stop solution changes the color to yellow, enabling accurate measurement of the intensity at 450 nm using a spectrophotometer or plate reader. […] Heparin (4 μM) was added to TNC III1-5 to test the effect of blocking the heparin binding site of TNC III1-5, which has been defined as domain TNC III5 (Weber, Zimmermann, et al., 1995).
# (§2) ELISA plates were coated with cytokines or BSA and further incubated with Fg β15-66 to analyze binding of […] to a wide variety of cytokines. […] Results are depicted in FIG. 4. Method: The methods were analogous to those used in Example 3.
# PDGF-AB = PDGF-AB (Homo sapiens, UniProt P01127+P04085); assay: ELISA binding to coated PDGF-AB
# Chain of PDGF-AB (P01127 82-190 limits assumed, other chains not shown): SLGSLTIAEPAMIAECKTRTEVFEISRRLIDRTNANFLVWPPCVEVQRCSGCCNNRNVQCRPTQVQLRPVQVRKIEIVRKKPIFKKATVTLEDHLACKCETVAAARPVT
# Experimental: as §1, §2
# PLGF-1 = target: T1, PLGF-1; assay: ELISA binding to coated PLGF-1
# Experimental: as §1, §2
# BMP-2 = target: T2, BMP-2; assay: ELISA binding to coated BMP-2
# Experimental: as §1, §2
# FGF-7 = target: T3, FGF-7; assay: ELISA binding to coated FGF-7
# Experimental: as §1, §2
# TGF-β2 = target: T4, TGF-β2; assay: ELISA binding to coated TGF-β2
# Experimental: as §1, §2
# NT-3 = target: T5, NT-3; assay: ELISA binding to coated NT-3
# Experimental: as §1, §2
# PDGF-BB = PDGF-BB (Homo sapiens, UniProt P01127); assay: ELISA binding to coated PDGF-BB
# Chain of PDGF-BB (P01127 82-190 limits assumed): as the sequence (P01127 82-190 limits assumed, other chains not shown) above
# Experimental: as §1, §2
# FGF-2 = FGF-2 (Homo sapiens, UniProt P09038); assay: ELISA binding to coated FGF-2
# Chain of FGF-2 (P09038 143-288, species assumed): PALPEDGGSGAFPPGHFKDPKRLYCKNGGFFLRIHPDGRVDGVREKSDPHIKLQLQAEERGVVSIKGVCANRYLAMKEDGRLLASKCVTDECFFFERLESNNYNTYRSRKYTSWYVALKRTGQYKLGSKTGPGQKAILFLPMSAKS
# Experimental: as §1, §2
# TGF-β1 = TGF-β1 (Homo sapiens, UniProt P01137); assay: ELISA binding to coated TGF-β1
# Chain of TGF-β1 (P01137 279-390 limits assumed, species assumed): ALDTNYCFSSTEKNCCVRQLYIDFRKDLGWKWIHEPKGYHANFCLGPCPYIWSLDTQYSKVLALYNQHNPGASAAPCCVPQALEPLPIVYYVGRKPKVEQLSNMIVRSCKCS
# Experimental: as §1, §2
# VEGF-A165 = target: T6, VEGF-A165; assay: ELISA binding to coated VEGF-A165
# Experimental: as §1, §2
# IGF-BP5 = IGF-BP5 (Homo sapiens, UniProt P24593); assay: ELISA binding to coated IGF-BP5
# Chain of IGF-BP5 (P24593 21-272, species assumed): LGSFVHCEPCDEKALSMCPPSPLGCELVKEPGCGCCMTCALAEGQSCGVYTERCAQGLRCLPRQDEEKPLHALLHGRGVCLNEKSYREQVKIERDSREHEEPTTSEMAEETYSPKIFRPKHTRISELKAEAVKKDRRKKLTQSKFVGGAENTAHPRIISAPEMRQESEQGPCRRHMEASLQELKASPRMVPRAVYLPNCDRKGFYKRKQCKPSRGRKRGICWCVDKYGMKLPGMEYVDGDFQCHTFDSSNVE
# Experimental: as §1, §2
# BDNF = target: T7, BDNF; assay: ELISA binding to coated BDNF
# Experimental: as §1, §2
# FGF-10 = target: T8, FGF-10; assay: ELISA binding to coated FGF-10
# Experimental: as §1, §2
# PLGF-2 = target: T9, PLGF-2; assay: ELISA binding to coated PLGF-2
# Experimental: as §1, §2
# VEGF-B = target: T10, VEGF-B; assay: ELISA binding to coated VEGF-B
# Experimental: as §1, §2
molecule,measurement,setting,value
"TNC III1-5: recombinant tenascin C fibronectin type III repeats 1-5 (E622 to A1074) with transglutaminase substrate NQEQVSPL and 6×His tag, SEQ ID NO:1 (protein, Tenascin III signal sequence with polyhistidine tag) METDTLLLWVLLLWVPGSTGDAAQPAIEGRNQEQVSPLGGSEVSPPKDLVVTEVTEETVNLAWDNEMRVTEYLVVYTPTHEGGLEMQFRVPGDQTSTIIQELEPGVEYFIRVFAILENKKSIPVSARVATYLPAPEGLKFKSIKETSVEVEWDPLDIAFETWEIIFRNMNKEDEGEITKSLRRPETSYRQTGLAPGQEYEISLHIVKNNTRGPGLKRVTTTRLDAPSQIEVKDVTDTTALITWFKPLAEIDGIELTYGIKDVPGDRTTIDLTEDENQYSIGNLKPDTEYEVSLISRRGDMSSNPAKETFTTGLDAPRNLRRVSQTDNSITLEWRNGKAAIDSYRIKYAPISGGDHAEVDVPKSQQATTKTTLTGLRPGTEYGIGVSAVKEDKESNPATINAATELDTPKDLQVSETAETSLTLLWKTPLAKFDRYRLNYSLPTGQWVGVQLPRNTTSYVLRGLEPGQEYNVLLTAEKGRHKSKPARVKASTEQAGGGSHHHHHH","binding to IGF-BP3 (ELISA, signal above BSA background)",IGF-BP3,positive binding
same,"binding to PDGF-AB (ELISA, signal above BSA background)",PDGF-AB,positive binding
same,"binding to PLGF-1 (ELISA, signal above BSA background)",PLGF-1,positive binding
same,"binding to BMP-2 (ELISA, signal above BSA background)",BMP-2,positive binding
same,"binding to FGF-7 (ELISA, signal above BSA background)",FGF-7,positive binding
same,"binding to TGF-β2 (ELISA, signal above BSA background)",TGF-β2,positive binding
same,"binding to NT-3 (ELISA, signal above BSA background)",NT-3,positive binding
same,"binding to PDGF-BB (ELISA, signal above BSA background)",PDGF-BB,positive binding
same,"binding to FGF-2 (ELISA, signal above BSA background)",FGF-2,positive binding
same,"binding to TGF-β1 (ELISA, signal above BSA background)",TGF-β1,positive binding
same,"binding to VEGF-A165 (ELISA, signal above BSA background)",VEGF-A165,positive binding
same,"binding to IGF-BP5 (ELISA, signal above BSA background)",IGF-BP5,positive binding
same,"binding to BDNF (ELISA, signal above BSA background)",BDNF,positive binding
same,"binding to FGF-10 (ELISA, signal above BSA background)",FGF-10,positive binding
same,"binding to PLGF-2 (ELISA, signal above BSA background)",PLGF-2,positive binding
same,"binding to VEGF-B (ELISA, signal above BSA background)",VEGF-B,positive binding
"Fg β15-66: heparin-binding domain of human fibrinogen β chain aa15-66 (SEQ ID NO:8); construct with TG substrate and His tag, SEQ ID NO:2 (protein, GS linker, transglutaminase substrate, the Fg beta15-66, with a Histidine tag) GSNQEQVSPLGHRPLDKKREEAPSLRPAPPPISGGGYRARPAKAAATQKKVERKAPDAGGCGHHHHHH","binding to IGF-BP3 (ELISA, signal above BSA background)",IGF-BP3,positive binding
same,"binding to PDGF-AB (ELISA, signal above BSA background)",PDGF-AB,positive binding
same,"binding to PLGF-1 (ELISA, signal above BSA background)",PLGF-1,did not bind
same,"binding to BMP-2 (ELISA, signal above BSA background)",BMP-2,positive binding
same,"binding to FGF-7 (ELISA, signal above BSA background)",FGF-7,positive binding
same,"binding to TGF-β2 (ELISA, signal above BSA background)",TGF-β2,positive binding
same,"binding to NT-3 (ELISA, signal above BSA background)",NT-3,positive binding
same,"binding to PDGF-BB (ELISA, signal above BSA background)",PDGF-BB,positive binding
same,"binding to FGF-2 (ELISA, signal above BSA background)",FGF-2,positive binding
same,"binding to TGF-β1 (ELISA, signal above BSA background)",TGF-β1,positive binding
same,"binding to VEGF-A165 (ELISA, signal above BSA background)",VEGF-A165,positive binding
same,"binding to IGF-BP5 (ELISA, signal above BSA background)",IGF-BP5,positive binding
same,"binding to BDNF (ELISA, signal above BSA background)",BDNF,positive binding
same,"binding to FGF-10 (ELISA, signal above BSA background)",FGF-10,positive binding
same,"binding to PLGF-2 (ELISA, signal above BSA background)",PLGF-2,positive binding
same,"binding to VEGF-B (ELISA, signal above BSA background)",VEGF-B,positive binding
